The source of these data is patent US20070167369A1, “Novel use of isolated polypeptide comprising four FAS-1 domains, EM1 domain and RGD motif” (KYUNGPOOK NATIONAL UNIVERSITY INDUSTRY-ACADEMIC COOPERATION …, priority 2004, published 2007).

The assay addresses αvβ3 integrin (human) (UniProt P06756). Nature of the assay: cell-based or functional assay.

Chain of αvβ3 integrin (human) (P06756 31-1048, chain 1 of 2): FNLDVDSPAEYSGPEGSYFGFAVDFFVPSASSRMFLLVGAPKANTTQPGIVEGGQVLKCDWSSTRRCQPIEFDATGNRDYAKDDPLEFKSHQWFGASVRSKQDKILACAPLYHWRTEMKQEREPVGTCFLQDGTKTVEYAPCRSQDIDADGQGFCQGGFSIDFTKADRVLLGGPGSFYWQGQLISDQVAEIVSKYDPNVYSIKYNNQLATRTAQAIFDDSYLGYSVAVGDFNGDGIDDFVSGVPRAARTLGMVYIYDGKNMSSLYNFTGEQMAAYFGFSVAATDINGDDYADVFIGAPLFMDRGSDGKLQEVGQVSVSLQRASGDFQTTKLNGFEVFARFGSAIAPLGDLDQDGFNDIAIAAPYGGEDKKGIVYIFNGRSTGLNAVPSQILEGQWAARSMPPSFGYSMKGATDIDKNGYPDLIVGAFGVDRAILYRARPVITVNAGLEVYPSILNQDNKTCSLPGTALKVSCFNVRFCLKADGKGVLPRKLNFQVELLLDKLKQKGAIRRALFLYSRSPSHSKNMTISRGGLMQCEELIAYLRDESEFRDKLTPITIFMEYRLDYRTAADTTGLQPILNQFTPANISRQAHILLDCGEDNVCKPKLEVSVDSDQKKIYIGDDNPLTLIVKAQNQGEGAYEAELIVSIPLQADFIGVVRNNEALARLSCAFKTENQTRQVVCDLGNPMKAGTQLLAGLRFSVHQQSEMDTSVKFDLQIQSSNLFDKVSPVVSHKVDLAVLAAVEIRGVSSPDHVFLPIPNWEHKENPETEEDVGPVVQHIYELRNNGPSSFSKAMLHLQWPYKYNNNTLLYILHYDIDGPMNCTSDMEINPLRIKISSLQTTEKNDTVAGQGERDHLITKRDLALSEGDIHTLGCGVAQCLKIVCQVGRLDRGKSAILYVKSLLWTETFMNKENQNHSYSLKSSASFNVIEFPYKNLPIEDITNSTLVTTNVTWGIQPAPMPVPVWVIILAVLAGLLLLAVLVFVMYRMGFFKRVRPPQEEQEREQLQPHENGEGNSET
Chain of αvβ3 integrin (human) (P05106 27-788, chain 2 of 2, further chain): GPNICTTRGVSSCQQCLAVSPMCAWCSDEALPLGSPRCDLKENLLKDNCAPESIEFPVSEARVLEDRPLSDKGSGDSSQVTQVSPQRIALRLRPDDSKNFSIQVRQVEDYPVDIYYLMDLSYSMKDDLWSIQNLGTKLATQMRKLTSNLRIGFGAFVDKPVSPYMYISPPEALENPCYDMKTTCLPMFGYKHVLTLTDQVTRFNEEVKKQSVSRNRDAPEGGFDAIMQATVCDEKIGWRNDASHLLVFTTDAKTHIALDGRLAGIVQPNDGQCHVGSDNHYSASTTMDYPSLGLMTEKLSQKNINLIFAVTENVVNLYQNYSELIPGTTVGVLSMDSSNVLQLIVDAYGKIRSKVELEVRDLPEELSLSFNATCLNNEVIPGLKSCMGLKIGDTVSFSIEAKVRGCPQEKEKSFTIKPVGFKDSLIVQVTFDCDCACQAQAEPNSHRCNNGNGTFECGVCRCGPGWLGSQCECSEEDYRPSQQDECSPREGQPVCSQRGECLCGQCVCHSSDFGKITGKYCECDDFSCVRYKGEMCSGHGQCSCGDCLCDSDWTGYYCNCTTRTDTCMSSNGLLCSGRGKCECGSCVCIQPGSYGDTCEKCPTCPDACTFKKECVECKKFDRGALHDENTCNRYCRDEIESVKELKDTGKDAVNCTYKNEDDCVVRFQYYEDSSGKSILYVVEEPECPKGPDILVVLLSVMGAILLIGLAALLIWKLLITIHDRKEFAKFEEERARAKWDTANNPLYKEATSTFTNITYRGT

“Regenin (regenin protein that expresses four of the fourth fas-1 domains of βig-h3)” displayed a 70%-inhibition of tube formation (HUVECs on Matrigel) of 5 µM and a half-inhibition of migration toward vitronectin (HUVECs, transwell) of 5 µM.
